Among the data in patent US20220220200A1 (published 2022) are Kd values, retold here.

The target in test [1] is T1, CD19 antigen (analyte of the Octet affinity assay) (UniProt P15391 20-291).
T1 chain: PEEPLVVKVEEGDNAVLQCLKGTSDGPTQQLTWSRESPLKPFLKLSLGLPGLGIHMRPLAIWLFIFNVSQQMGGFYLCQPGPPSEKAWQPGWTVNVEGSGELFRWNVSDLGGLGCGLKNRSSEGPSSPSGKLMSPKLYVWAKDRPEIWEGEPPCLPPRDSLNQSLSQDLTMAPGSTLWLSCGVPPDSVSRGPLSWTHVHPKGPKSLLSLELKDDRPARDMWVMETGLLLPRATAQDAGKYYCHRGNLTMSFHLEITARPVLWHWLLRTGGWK
In words: BLI. In general terms: BLI is a label-free optical method that tracks binding on a fibre tip over time.

A further test deals with FMC63. Put plainly: BLI.

In general, Kd refers to the equilibrium constant for the complex coming apart. Lower therefore signals a tighter complex.

B1: #62 anti-CD19 scFv-rFc (Fc fusion)
scFv: QSVVTQPPSVSGAPGQRVTISCTGSSSNIGAGYDVHWYQQLPGTAPKLLIYENTNRPSGVPDRFSGSKSGTSASLAITGLQAEDEADYYCQSYDSSLSGWRVFGGGTKLTVLGSRGGGGSGGGGSGGGGSLEMAEVQLVQSGAEVKKPGESLKISCKGSGYSFTNSWIGWVRQMPGKGLEWMGLIYPDDSDTRYSPSFQGQVTISADSAINTAYLQWSSLKASDTAMYYCARQSTYIYGGYYDTWGQGTLVTVSS
With B1, the Kd in test [1] amounted to 51.1 nM.

B2: CD19 antigen (receptor)
chain: T1 chain
Take B2: the Kd with FMC63 worked out at 10.7 nM.

B3: #78 anti-CD19 scFv-rFc (Fc fusion)
scFv: QAVLTQPPSVSEAPRQRVTISCSGSSSNIGNNAVSWYQQLPGKAPKLLIYYDDLLPSGVSDRFSGSKSGTSASLAISGLQSEDEADYYCAAWDDSLNGWVFGGGTKVTVLGSRGGGGSGGGGSGGGGSLEEVQLVQSGAEVKKPGESLKISCKGSGYSFTSYWIGWVRQMPGKGLEWMGIIYPGDSDTRYSPSFQGQVTISADKSISTAYLQWSSLKASDTAMYYCARLSYSWSSWYWDFWGQGTLVTVSS
B3 came in with an equilibrium dissociation constant (Kd) in test [1] of 21.9 nM.
